The source of these data is patent publication US20250388676A1.

The EC50 (read off the curve) is the concentration at which the effect is half-maximal.

Test [1] has as its target human CD27 on reporter cells (human) (UniProt P26842). Kind of test: cell-based or functional assay.
For test [2], the target named is CD27 (analyte in solution) (UniProt P26842). Kind of test: SPR (Biacore), construct captured on CM5 chip via anti-human Fc or Fab, antigen as analyte, 25 C. A general note: SPR reads the build-up and loss of mass on a sensor chip optically.
For test [3], the target named is human LTBR on Jurkat NF-kB reporter cells (human) (UniProt P36941). Kind of test: cell-based or functional assay.
Test [4] concerns the target human HVEM on Jurkat NF-kB reporter cells (human) (UniProt Q92956). The experiment in a line: cell-based or functional assay.
Test [5] addresses HVEM (analyte in solution) (UniProt Q92956). Kind of test: SPR (Biacore), construct captured on CM5 chip via anti-human Fc or Fab, antigen as analyte, 25 C.
The target of the next test is activated cyno T cells. Kind of test: flow cytometry on activated primary cynomolgus T cells, detection with anti-human IgG Fc F(ab')2 [panel B]. (A flow cytometer gives signals particle by particle.)
In another test the target is activated human T cells. The experiment in a line: flow cytometry on activated primary human T cells, detection with anti-human IgG Fc F(ab')2 [panel A].
Test [6] concerns the target cynomolgus GITR (cynomolgus monkey). Kind of test: flow cytometry on NFkB-NlucP/HEK293 cells expressing cyno GITR, detection with anti-human IgG Fc F(ab')2 [panel B].
Test [7] has as its target human OX40 on Jurkat NF-kB-Luc2 OX40 reporter cells (human) (UniProt P43489). Kind of test: cell-based or functional assay.
Test [8] concerns the target OX40 (analyte in solution) (UniProt P43489). Kind of test: SPR (Biacore), construct captured on CM5 chip via anti-human Fc or Fab, antigen as analyte, 25 C.

Positions count from the first letter of the chain named.

human OX40 on Jurkat NF-kB-Luc2 OX40 reporter cells (human), sequence (P43489 29-277): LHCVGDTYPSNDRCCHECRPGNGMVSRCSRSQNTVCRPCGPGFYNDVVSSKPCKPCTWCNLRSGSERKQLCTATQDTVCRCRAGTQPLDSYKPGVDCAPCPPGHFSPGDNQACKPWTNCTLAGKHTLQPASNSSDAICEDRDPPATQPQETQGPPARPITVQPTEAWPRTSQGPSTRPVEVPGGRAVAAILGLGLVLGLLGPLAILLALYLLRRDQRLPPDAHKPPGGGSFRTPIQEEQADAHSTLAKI
human LTBR on Jurkat NF-kB reporter cells (human), sequence (P36941 31-435): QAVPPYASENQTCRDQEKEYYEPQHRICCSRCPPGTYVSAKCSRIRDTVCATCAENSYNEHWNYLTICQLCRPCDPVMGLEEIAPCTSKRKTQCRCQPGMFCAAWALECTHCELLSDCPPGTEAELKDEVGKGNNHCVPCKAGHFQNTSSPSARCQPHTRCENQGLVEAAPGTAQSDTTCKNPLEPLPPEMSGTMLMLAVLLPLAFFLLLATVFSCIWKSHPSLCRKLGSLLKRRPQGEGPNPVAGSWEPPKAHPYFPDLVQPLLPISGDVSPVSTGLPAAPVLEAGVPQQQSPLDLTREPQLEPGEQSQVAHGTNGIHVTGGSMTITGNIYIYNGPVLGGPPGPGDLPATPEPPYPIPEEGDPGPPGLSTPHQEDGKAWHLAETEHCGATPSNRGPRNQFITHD
CD27 (analyte in solution), sequence (P26842 20-191 limits assumed): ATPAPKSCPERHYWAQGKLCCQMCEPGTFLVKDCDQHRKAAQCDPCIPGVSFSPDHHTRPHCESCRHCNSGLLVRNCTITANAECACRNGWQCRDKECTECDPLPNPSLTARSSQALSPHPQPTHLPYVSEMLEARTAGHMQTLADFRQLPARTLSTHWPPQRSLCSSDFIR
human HVEM on Jurkat NF-kB reporter cells (human), sequence (Q92956 39-283): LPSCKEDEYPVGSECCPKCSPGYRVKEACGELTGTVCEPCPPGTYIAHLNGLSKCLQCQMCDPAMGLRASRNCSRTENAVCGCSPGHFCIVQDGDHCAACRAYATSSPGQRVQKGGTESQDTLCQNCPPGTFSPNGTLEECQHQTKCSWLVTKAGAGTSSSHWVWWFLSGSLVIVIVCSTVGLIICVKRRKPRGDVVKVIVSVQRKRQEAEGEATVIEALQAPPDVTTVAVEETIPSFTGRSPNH
human CD27 on reporter cells (human), sequence (P26842 20-260): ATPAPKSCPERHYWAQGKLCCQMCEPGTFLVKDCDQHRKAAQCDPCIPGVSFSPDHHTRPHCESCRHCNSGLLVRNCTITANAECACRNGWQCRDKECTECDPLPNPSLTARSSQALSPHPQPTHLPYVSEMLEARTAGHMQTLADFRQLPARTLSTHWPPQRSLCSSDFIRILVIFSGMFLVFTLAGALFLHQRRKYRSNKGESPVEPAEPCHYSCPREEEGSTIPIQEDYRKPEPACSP
OX40 (analyte in solution), sequence (P43489 29-214 limits assumed): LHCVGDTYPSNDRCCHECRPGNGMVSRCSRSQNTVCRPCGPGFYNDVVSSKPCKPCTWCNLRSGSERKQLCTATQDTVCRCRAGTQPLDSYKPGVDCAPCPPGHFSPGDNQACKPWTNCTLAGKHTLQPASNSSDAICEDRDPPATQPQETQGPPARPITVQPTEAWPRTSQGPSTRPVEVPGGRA
HVEM (analyte in solution), sequence (Q92956 39-202 limits assumed): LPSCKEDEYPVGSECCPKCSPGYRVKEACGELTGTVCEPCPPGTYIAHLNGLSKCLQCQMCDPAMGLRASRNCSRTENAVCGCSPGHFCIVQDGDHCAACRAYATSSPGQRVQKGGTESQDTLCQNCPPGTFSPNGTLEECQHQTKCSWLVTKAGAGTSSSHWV

B1: CD70 monospecific (protein, part only; not given: carrier Fab or Fc and linkers, not shown: another chain or arm of the molecule; a dimerising Fc or GST; large carriers; small tags and cut ends)
chain: GWDVAELQLNHTGPQQDPRLYWQGGPALGRSFLHGPELDKGQLRIHRDGIYMVHIQVTLAICSSTTASRHHPTTLAVGICSPASRSISLLRLSFHQGCTIASQRLTPLARGDTLCTNLTGTLLPSRNTDETFFGVQWVRPGGGGSGGGGSGWDVAELQLNHTGPQQDPRLYWQGGPALGRSFLHGPELDKGQLRIHRDGIYMVHIQVTLAICSSTTASRHHPTTLAVGICSPASRSISLLRLSFHQGCTIASQRLTPLARGDTLCTNLTGTLLPSRNTDETFFGVQWVRPGGGGSGGGGSGWDVAELQLNHTGPQQDPRLYWQGGPALGRSFLHGPELDKGQLRIHRDGIYMVHIQVTLAICSSTTASRHHPTTLAVGICSPASRSISLLRLSFHQGCTIASQRLTPLARGDTLCTNLTGTLLPSRNTDETFFGVQWVRP
B1 showed a CD27 reporter EC50 in test [1] of 1.9 nM. For the same molecule, the Average binding Relative (RU) in test [2] was 32.7 RU.

B2: LIGHT monospecific (protein, part only; not given: carrier Fab or Fc and linkers, not shown: another chain or arm of the molecule; a dimerising Fc or GST; large carriers; small tags and cut ends)
chain: LIQERRSHEVNPAAHLTGANSSLTGSGGPLLWETQLGLAFLRGLSYHDGALVVTKAGYYYIYSKVQLGGVGCPLGLASTITHGLYKRTPRYPEELELLVSQQSPCGRATSSSRVWWDSSFLGGVVHLEAGEKVVVRVLDERLVRLRDGTRSYFGAFMVGGGGSGGGGSLIQERRSHEVNPAAHLTGANSSLTGSGGPLLWETQLGLAFLRGLSYHDGALVVTKAGYYYIYSKVQLGGVGCPLGLASTITHGLYKRTPRYPEELELLVSQQSPCGRATSSSRVWWDSSFLGGVVHLEAGEKVVVRVLDERLVRLRDGTRSYFGAFMVGGGGSGGGGSLIQERRSHEVNPAAHLTGANSSLTGSGGPLLWETQLGLAFLRGLSYHDGALVVTKAGYYYIYSKVQLGGVGCPLGLASTITHGLYKRTPRYPEELELLVSQQSPCGRATSSSRVWWDSSFLGGVVHLEAGEKVVVRVLDERLVRLRDGTRSYFGAFMV
With B2, the LTBR reporter EC50 in test [3] is 0.0057 nM. The molecule further showed an HVEM reporter EC50 in test [4] of 0.05 nM. The molecule also had an Average binding Relative (RU) in [5] of 1.69 RU.

B3: GITRLmut/anti-PD-1 mAb1 (antibody, part only; not given: mutant GITRL, constant regions, linkers, not shown: a dimerising Fc or GST)
heavy, part: QLQLQESGPGLVKPSETLSLTCTVSGGSISTSSYFWGWIRQPPGKGLEWIGSIYRSGSTYYNPSLKSRVTISVDTSKNQFSLKLSSVTAADTAVYYCARGITGDPGDYWGQGTLVTVSS
light, part: EIVLTQSPATLSLSPGERATLSCGASQSVSINFLAWYQQKPGLAPRLLIYEASSRATGIPDRFSGSGSGTDFTLTISRLEPEDFAVYYCQQYGSSPYTFGQGTKLEIK
For the molecule B3, the EC50 (read off the curve) with activated cyno T cells came out at 0.6 nM; in the test with activated human T cells, 0.4 nM.

B4: GITRLmut/anti-PD-1 mAb2 (antibody, part only; not given: mutant GITRL, constant regions, linkers, not shown: a dimerising Fc or GST)
heavy, part: B3 heavy, part with T31S
light, part: B3 light, part with S30P, A56H, Q90G
With B4, the EC50 (read off the curve) was found to be 0.2 nM with activated cyno T cells and 0.1 nM with activated human T cells.

B5: GITRL/irrelevant control (antibody, part only; not given: irrelevant anti-TNP binding site, not shown: another chain or arm of the molecule; small tags and cut ends)
chain: QLETAKEPCMAKFGPLPSKWQMASSEPPCVNKVSDWKLEILQNGLYLIYGQVAPNANYNDVAPFEVRLYKNKDMIQTLTNKSKIQNVGGTYELHVGDTIDLIFNSEHQVLKNNTYWGIILLANPQFISGGGGSGGGGSQLETAKEPCMAKFGPLPSKWQMASSEPPCVNKVSDWKLEILQNGLYLIYGQVAPNANYNDVAPFEVRLYKNKDMIQTLTNKSKIQNVGGTYELHVGDTIDLIFNSEHQVLKNNTYWGIILLANPQFISGGGGSGGGGSQLETAKEPCMAKFGPLPSKWQMASSEPPCVNKVSDWKLEILQNGLYLIYGQVAPNANYNDVAPFEVRLYKNKDMIQTLTNKSKIQNVGGTYELHVGDTIDLIFNSEHQVLKNNTYWGIILLANPQFIS
Turning to B5, in test [6], the half-maximal effective concentration (EC50 (read off the curve)) came out at 0.02 nM.

B6: OX40L monospecific (protein, part only; not given: carrier Fab or Fc and linkers, not shown: another chain or arm of the molecule; a dimerising Fc or GST; large carriers; small tags and cut ends)
chain: QVSHRYPRIQSIKVQFTEYKKEKGFILTSQKEDEIMKVQDNSVIINCDGFYLISLKGYFSQEVDISLHYQKDEEPLFQLKKVRSVNSLMVASLTYKDKVYLNVTTDNTSLDDFHVNGGELILIHQNPGEFCVLGGGGSGGGGSQVSHRYPRIQSIKVQFTEYKKEKGFILTSQKEDEIMKVQDNSVIINCDGFYLISLKGYFSQEVDISLHYQKDEEPLFQLKKVRSVNSLMVASLTYKDKVYLNVTTDNTSLDDFHVNGGELILIHQNPGEFCVLGGGGSGGGGSQVSHRYPRIQSIKVQFTEYKKEKGFILTSQKEDEIMKVQDNSVIINCDGFYLISLKGYFSQEVDISLHYQKDEEPLFQLKKVRSVNSLMVASLTYKDKVYLNVTTDNTSLDDFHVNGGELILIHQNPGEFCVL
In turn, B6 showed an OX40 reporter EC50 in test [7] of 0.74 nM. This molecule also returned an Average binding Relative (RU) in [8] of 23.7 RU.
